# Measurements taken from US20230295310A1 (ABCELLERA BIOLOGICS, published 2023).
# Residue numbers refer to the chain shown, from its start.
# B1: mAb 260 (antibody, V domains shown)
# VH: EVQLLESGGGLVQPGGSLRLSCVASGFTFRSSSMAWVRQAPGKGLEWVSGIRGSGGRTYDAESVKGRFIISRDTSKNTLYLQMNSLRGEDTAEYFCAKLYDYYNDYMDVWGKGTTVTVSS
# VL: SYELTQPLSVSVALGQTARITCGGNNIGSKNVHWYQQKPGQAPVLVIYRDSNRPSGIPERFSGSNSGNTATLTISRAQAGDEADYYCQVWDSSTAVFGGGTQLTAL
# notes: VH and VL only
# B2: mAb 261 (antibody, V domains shown)
# VH: EVQLLESGGGFMQPGGSLRLSCAVSGFTFRTSSMAWVRQAPGKGLEWVSGIRGSGGRTYDAESVKGRFTISRDISKNTLYLQMNNLRAEDTAEYYCAKLYDYYNDFMDVWGKGTTVIVSA
# VL: B1 VL
# notes: VH and VL only
# B3: mAb 262 (antibody, V domains shown)
# VH: B1 VH with Q3R, V23A, A40D, S49T, E62D, I69T, T74N, G88A, F95Y
# VL: B1 VL
# notes: VH and VL only
# B4: mAb 263 (antibody, V domains shown)
# VH: EVQLLESGGGLVQPGGSLRLSCTPSGITFNNYAMTWVRQAPGKGLEWVSGISVSGGSTYYADSVMGRFTISRDSSKTLYLQMNSLRAEDTAVYYCAKFHSHYYYYMDVWGKGTTVTVSS
# VL: B1 VL with N31D, S92R, S93R
# notes: VH and VL only
# B5: mAb 273 (antibody, V domains shown)
# VH: EVQLVESGGGLVQPGESLKLSCTASGFTFSVSAIHWVRQASGKGLEWVGRIRSKANSYATAYVASVKGRFTLSRDDSKNTAYLQMNSLKTEDTAVYYCSSYYFVSGTYYNHWGQGTLVTVSS
# VL: DIQMTQSPSSLSASVGDRVTITCRASQGIRYDLGWYQQKPGRAPKRLIHSVSSLQSGVPSRFSGSGSGTEFTLTISSLQPEDFATYYCLQHNVNPCTFGQGTKLEIK
# notes: VH and VL only
# B6: mAb 72 (antibody, V domains shown)
# VH: EVQLVDSGGGLVQPGGSLRLSCAASGFTFSSYWMSWVRQAPGKGLEWVANIKQDGSEKYYVDSVKGRFTISRDNVKNSLSLEMNSLRAEDTALYYCARDESSSWYWYFDLWGRGTLVTVSS
# VL: DIQMTQSPSTLSASVGDRVTITCRASQSISKWLAWYQQKPGKAPKLLIYKASSLENGVPSRFSGSGSGTEFTLTISSLQPDDFATYYCQQYSSYSRTFGQGTKVEIK
# notes: VH and VL only
# B7: mAb 276 (antibody, V domains shown)
# VH: EVQLVESGGGLVQPGGSLRLSCAASGIPFSTYSMNWVRQAPGKGLEWVSYISGSSRTIYYADSVKGRFTISRDNAKKLLFLQMNSLRDEDTAVYYCAREGDYYDSSGWAYWGQGTLVTVSS
# VL: DIQMTQSPSSLSASVGDRVTITCRASQNIYKYLNWYEQKPGRAPKLLIYTTSNLQSGVPSRFSGSGSGTAFTLIISSLQPEDFATYYCQQSYGSPYTFGQGTKLEIK
# notes: VH and VL only
# B8: mAb 283 (antibody, V domains shown)
# VH: QVHLVQSGAEVKKPGASVRVSCKASGYTFTGYYIHWLRQAPGQGLEWLGWINPNSGGTNYSQKFRGRVTMTRDTSISTAYMELSRLRSDDTAVYYCARDKVWEQQLVGGFDYWGQGTLVTVSS
# VL: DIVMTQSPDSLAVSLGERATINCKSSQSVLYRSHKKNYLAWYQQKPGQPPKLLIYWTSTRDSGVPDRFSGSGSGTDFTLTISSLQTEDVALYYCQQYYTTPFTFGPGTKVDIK
# notes: VH and VL only
# B9: mAb 292 (antibody, V domains shown)
# VH: EVQLLESGGGLVQPGGSRRLSCAASGFTFSTYAMSWVRQAPGKGLEWVSVINGRGDDTNYADSVKGRFTISRDNSKNILFLQMNSLRAEDTAVYYCAKKYSYYYYYMDVWGKGTTVTVSS
# VL: B1 VL with N31D, S93R
# notes: VH and VL only
# B10: mAb 296 (antibody, V domains shown)
# VH: EVQLLESGGGLVQPGGSLRLSCAASGFTFSSYAMSWVRQAPGKGLEWVSAISGSGGTTYYTDSVKGRFTISRDNSKNTLYLQMNSLRAEDTAVYYCAKKYSYYYYYMDVWGKGTTVTVSS
# VL: B1 VL
# notes: VH and VL only
# B11: mAb 297 (antibody, V domains shown)
# VH: EVQLLESGGGLVQPGGSLRLSCAASGFTFSSYAMNWVRQAPGKGLEWVSIISGGRRDDITYYAASVKGRFTISRDNSKNTLYLQMNSLRAEDTAVYYCAKMYNYYYYYIDVWGKGTTVTVSS
# VL: B1 VL with R19K, N31D, S93N
# notes: VH and VL only
# B12: mAb 303 (antibody, V domains shown)
# VH: B11 VH with Q3H, V48I, D57S, D58G, Y82D
# VL: B1 VL with N31D, S93N
# notes: VH and VL only
# B13: mAb 78 (antibody, V domains shown)
# VH: B6 VH with D6E, V75A, S80Y, E82Q, L93V, E100N, S102P, W104F
# VL: B6 VL with I29L, K31R, N56S, S92Y, S93T
# notes: VH and VL only
# B14: mAb 90 (antibody, V domains shown)
# VH: EVQLVESGGGLVQPGGSLKLSCAASGFTFSGSAMHWVRQASGKGLEWVGRIRTKPNSYATSYAASVKDRFTISRDDSKNTAYLQMNSLKTEDTAVYYCIRGELEPWGQGTLVTVSS
# VL: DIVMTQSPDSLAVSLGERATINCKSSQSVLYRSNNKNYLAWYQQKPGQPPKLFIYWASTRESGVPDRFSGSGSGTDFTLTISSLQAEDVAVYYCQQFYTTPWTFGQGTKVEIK
# notes: VH and VL only
# B15: mAb 99 (antibody, V domains shown)
# VH: QGQLVESGGGVVQPGRSLRLSCAASGFTFRGFGMHWVRQAPGKGLEWVAIIYYDGKNKYYADSVKGRFTISRDNSKNTLYLQMNSLRAEDTAVYYCAKGGGYNWFDPWGQGTLVTVSS
# VL: DIQMTQSPSSLSASVGDRVTITCRASQSISTYLNWYQQKPGKAPKLLIYSASSLQSGVPSRFSGSGSGTDFTLTISNLQPEDFAIYYCQRSYSPPFTFGPGTKLDIR
# notes: VH and VL only
# B16: mAb 93 (antibody, V domains shown)
# VH: B15 VH with G2V, F32Y, D54N, K56N, K98R
# VL: B15 VL with T31N, K39E, S50T, D70A, N77S, Y92S, R107K
# notes: VH and VL only
# B17: mAb 97 (antibody, V domains shown)
# VH: B15 VH with F32Y, S85N, A88V, K98R
# VL: B15 VL with V15I, T31N
# notes: VH and VL only
# B18: mAb 100 (antibody, V domains shown)
# VH: B15 VH with G2V, A23V, F32Y, A88V, V93L, K98R
# VL: B15 VL with S50T, D70V, N77S, K103R, R107K
# notes: VH and VL only
# B19: mAb 101 (antibody, V domains shown)
# VH: B15 VH with T78M
# VL: B15 VL
# notes: VH and VL only
# B20: mAb 95 (antibody, V domains shown)
# VH: B15 VH with G2A, Q3H, A23S, R30S, F32Y, I50L, Y53F, K56R, K98R
# VL: DIQMTQSPSSLSASVGDRVTITCRASQSINNYLSWYQQKPGKAPKLLIYLASNLQSGVPSRFSGSGSGTDFTLTISSLQPEDFATYYCQLSYRSPFTFGPGTKVDVK
# notes: VH and VL only
# B21: mAb 94 (antibody, V domains shown)
# VH: B15 VH with G2V, Q3H, A23S, R30S, F32Y, I50L, Y53F, K56R, K98R
# VL: B20 VL with N30S, S34N, N53S, S76N, T85S, R93S, K107N
# notes: VH and VL only
# B22: mAb 96 (antibody, V domains shown)
# VH: B15 VH with G2A, Q3H, A23S, R30S, F32Y, A49S, I50L, Y53F, K56R, K98R
# VL: B20 VL with S65N
# notes: VH and VL only
# B23: mAb 98 (antibody, V domains shown)
# VH: B15 VH with G2V, Q3H, G10D, A23S, R30S, F32Y, I50L, Y53F, K56R, K98R
# VL: B20 VL with S34N, N53S, F83L, R93S
# notes: VH and VL only
# B24: mAb 106 (antibody, V domains shown)
# VH: QVQLVESGGGVVQPGRSLRLSCAASGFTFRSYGMHWVRQAPGKGLEWVAIIWYNGNKKDYVDSVKGRFTISRDNSKNTLYLQMNSLRAEDTALYYCARGPGYNWFDPWGQGTLVTVSS
# VL: DIQMTQSPPSLSASVGDRVTITCRASQRISSYLNWYQQKPGKAPKLLIYAASSLQSGVPSRFSGSGSGTDFTLTISSLQPEDFATYYCQQSDSFPLTFGGGTKVEII
# notes: VH and VL only
# B25: mAb 110 (antibody, V domains shown)
# VH: B24 VH with T78M
# VL: B24 VL with K39R, S91T
# notes: VH and VL only
# B26: mAb 111 (antibody, V domains shown)
# VH: EVQLVESGGVLVKTGGSLRLSCVASGFSFKKAWMNWVRQAPGKGLEWVGRIKRNSDGGAADYAAPVKDRFTLSRDDSKNTLYLQMNSLKTEDTAVYYCTTLDSSSWYVGYYYMDVWGKGTTVTVSS
# VL: DIHMTQSPSSVSASLGDRVTFTCRASQNINNWLAWYQQKPGKAPKLLIYTASSLQSGVPSRFSGSGSGTDFTLTISSLQPDDFATYYCQQAHSLPITFGQGTRLGIK
# notes: VH and VL only
# B27: mAb 49 (antibody, V domains shown)
# VH: EVQLVESGGGLVPPGGSLRLSCVASGFTLRSYTMNWVRQAPGQGLEWISYISSTSRTIYYSDSVKGRFTISRDNAKNSLYLQVNSLRDEDTALYYCAREDYYDSSGFDCWGQGTLVTVSS
# VL: AIRMTQSPSSFSASTGDRVTITCRASQGIFNYLAWYQQKPGKAPKLLIYSTSTLQSGVPSRFSGSGSGTDFTLTIRGLQSEDLATYYCQQYYSFPRTFGQGTKVDIK
# notes: VH and VL only
# Molecular target: T1, human CD3e/g (human, UniProt P07766 23-126; P09693 23-116)
# T1 construct: Bought soluble protein; also called hCD3e/g; human CD3e/g (Acro CDD-C52W4)
# T1 sequence (P07766 23-126, chain 1 of 2): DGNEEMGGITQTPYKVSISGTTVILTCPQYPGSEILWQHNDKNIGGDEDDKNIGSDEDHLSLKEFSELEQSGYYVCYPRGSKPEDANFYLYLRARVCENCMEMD
# T1 sequence (P09693 23-116, chain 2 of 2): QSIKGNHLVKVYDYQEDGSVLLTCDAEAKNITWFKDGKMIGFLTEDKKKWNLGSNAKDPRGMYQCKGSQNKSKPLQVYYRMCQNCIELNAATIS
# Experiment: SPR (Carterra LSA), mAb on chip
# In short: (§1)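 Purified mAbs amine-coupled (EDC/S-NHS) at 10 μg/mL in 10 mM NaOAc pH 4.25 onto an HC-30M chip, with benchmark and negative-control mAbs; analyte flowed over the array. Double-referenced sensorgrams fitted globally to a 1:1 Langmuir model for ka, kd and KD.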
row,Binder,Kd [nM]
1,B1,4.2
2,B2,3
3,B3,10
4,B4,4.1
5,B5,46
6,B6,394
7,B7,9.6
8,B8,20
9,B9,47
10,B10,180
11,B11,18
12,B12,5.5
13,B13,1260
14,B14,41
15,B15,11.6
16,B16,35.8
17,B17,17.8
18,B18,25.5
19,B19,10.9
20,B20,9.22
21,B21,7.8
22,B22,11.9
23,B23,11.2
24,B24,10.6
25,B25,8.97
26,B26,7.44
27,B27,3.64

# Molecular target: T2, human CD3e/d (human, UniProt P07766 23-126; P04234 22-105)
# T2 construct: Bought soluble protein; also called hCD3e/d; human CD3/ed (Sino CT038-H2508H)
# T2 sequence (P07766 23-126, chain 1 of 2): as the sequence (P07766 23-126, chain 1 of 2) above
# T2 sequence (P04234 22-105, chain 2 of 2): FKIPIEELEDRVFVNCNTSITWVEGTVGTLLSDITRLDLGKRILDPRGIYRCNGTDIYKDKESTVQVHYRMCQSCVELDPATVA
# Experiment: SPR (Carterra LSA), mAb on chip
# In short: as §1
row,Binder,Kd [nM]
1,B1,28
2,B2,16
3,B3,26
4,B4,9
5,B5,75
6,B6,606
7,B7,15
8,B8,160
9,B9,91
10,B10,370
11,B11,66
12,B12,47
13,B13,283
14,B14,33.3
15,B15,8.92
16,B16,47.8
17,B17,16.5
18,B18,20.5
19,B19,9.06
20,B20,1.79
21,B21,1.57
22,B22,7.73
23,B23,9.71
24,B24,17.1
25,B25,18.4
26,B26,19.6
27,B27,10.8
